From publication PMC8467691, “Human Cystathionine γ-Lyase Is Inhibited by S-Nitrosation: A New Crosstalk Mechanism between NO and H2S” (Antioxidants, 2021) come the findings set out here.

Sequences and labels used below:
B1: wild-type human cystathionine γ-lyase (enzyme, UniProt P32929 1-405, looked up)
chain: MQEKDASSQGFLPHFQHFATQAIHVGQDPEQWTSRAVVPPISLSTTFKQGAPGQHSGFEYSRSGNPTRNCLEKAVAALDGAKYCLAFASGLAATVTITHLLKAGDQIICMDDVYGGTNRYFRQVASEFGLKISFVDCSKIKLLEAAITPETKLVWIETPTNPTQKVIDIEGCAHIVHKHGDIILVVDNTFMSPYFQRPLALGADISMYSATKYMNGHSDVVMGLVSVNCESLHNRLRFLQNSLGAVPSPIDCYLCNRGLKTLHVRMEKHFKNGMAVAQFLESNPWVEKVIYPGLPSHPQHELVKRQCTGCTGMVTFYIKGTLQHAEIFLKNLKLFTLAESLGGFESLAELPAIMTHASVLKNDRDVLGISDTLIRLSVGLEDEEDLLEDLDQALKAAHPPSGSHS
notes: human cystathionine γ-lyase (CSE), wild type; TEV and 3C protease recognition sites follow the His6 tag; No cleavage of the tag is told; also called CSE; WT CSE; source: recombinant, synthetic gene in pET-28b, purified (HisTrap FF Crude, Superdex 200 SEC)
B2: human cystathionine γ-lyase C137S variant (enzyme, UniProt P32929 1-405, looked up)
chain: B1 chain with C137S
notes: human cystathionine γ-lyase (CSE) with C137S; TEV and 3C protease recognition sites follow the His6 tag; also called C137S CSE; source: recombinant, pET-28b, site-directed mutagenesis of the WT vector, purified (HisTrap FF Crude, Superdex 200 SEC)
B3: human cystathionine γ-lyase C109S variant (enzyme, UniProt P32929 1-405, looked up)
chain: B1 chain with C109S
notes: human cystathionine γ-lyase (CSE) with C109S; TEV and 3C protease recognition sites follow the His6 tag; also called C109S CSE; source: recombinant, pET-28b, site-directed mutagenesis of the WT vector, purified (HisTrap FF Crude, Superdex 200 SEC)
B4: human cystathionine γ-lyase C172S variant (enzyme, UniProt P32929 1-405, looked up)
chain: B1 chain with C172S
notes: human cystathionine γ-lyase (CSE) with C172S; TEV and 3C protease recognition sites follow the His6 tag; also called C172S CSE; source: recombinant, pET-28b, site-directed mutagenesis of the WT vector, purified (HisTrap FF Crude, Superdex 200 SEC)
B5: human cystathionine γ-lyase C229S variant (enzyme, UniProt P32929 1-405, looked up)
chain: B1 chain with C229S
notes: human cystathionine γ-lyase (CSE) with C229S; TEV and 3C protease recognition sites follow the His6 tag; also called C229S CSE; source: recombinant, pET-28b, site-directed mutagenesis of the WT vector, purified (HisTrap FF Crude, Superdex 200 SEC)
B6: human cystathionine γ-lyase C307S variant (enzyme, UniProt P32929 1-405, looked up)
chain: B1 chain with C307S
notes: human cystathionine γ-lyase (CSE) with C307S; TEV and 3C protease recognition sites follow the His6 tag; also called C307S CSE; source: recombinant, pET-28b, site-directed mutagenesis of the WT vector, purified (HisTrap FF Crude, Superdex 200 SEC)
B7: human cystathionine γ-lyase C70S variant (enzyme, UniProt P32929 1-405, looked up)
chain: B1 chain with C70S
notes: human cystathionine γ-lyase (CSE) with C70S; TEV and 3C protease recognition sites follow the His6 tag; also called C70S CSE; source: recombinant, pET-28b, site-directed mutagenesis of the WT vector, purified (HisTrap FF Crude, Superdex 200 SEC)
B8: human cystathionine γ-lyase C310S variant (enzyme, UniProt P32929 1-405, looked up)
chain: B1 chain with C310S
notes: human cystathionine γ-lyase (CSE) with C310S; TEV and 3C protease recognition sites follow the His6 tag; also called C310S CSE; source: recombinant, pET-28b, site-directed mutagenesis of the WT vector, purified (HisTrap FF Crude, Superdex 200 SEC)
B9: human cystathionine γ-lyase C84S variant (enzyme, UniProt P32929 1-405, looked up)
chain: B1 chain with C84S
notes: human cystathionine γ-lyase (CSE) with C84S; TEV and 3C protease recognition sites follow the His6 tag; also called C84S CSE; source: recombinant, pET-28b, site-directed mutagenesis of the WT vector, purified (HisTrap FF Crude, Superdex 200 SEC)

Substitutions are numbered along the chain they refer to. Names and notes keep the numbering of the source.

The data set concerns the molecule itself. The experiment in a line: SEC; HiLoad 16/600 Superdex 200 in buffer B (20 mM Tris-HCl, pH 7.5, 150 mM NaCl, 10% glycerol, 100 μM TCEP, 20 μM PLP), after the HisTrap step of the purification. In general terms: In gel filtration, larger molecules generally elute earlier.
Take B1: the “stoichiometry N” value came to 4. With B2 the figure was 4. With B3 the figure was 4; with B4, 4; with B5, 4. With B6 the figure was 4; with B7, 4; with B8, 4. For the protein B9, the “stoichiometry N” value was 4.

The stoichiometry N is the number of molecules, sites or subunits per partner or assembly.
